Assay: yeast display, Sf9 membrane polyspecificity reagent, FACS + sequencing; frameworks hold sequencing errors
In short: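 A nanobody's polyreactivity label depends on the gate it was sorted from. Yeast display cells were stained with 10% biotinylated, detergent-solubilized Sf9 membrane reagent for 1 hour at 4 °C, enriched on streptavidin microbeads and sorted by FACS. The low and high (top ~1%) gates were set on anti-HA fluorescence for expression and streptavidin fluorescence for reagent binding.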

| Sequence | polyreactivity (PSR sort gate) |
| --- | --- |
| QVQLVESGGGLVQAGGSLRLSCAASVSIFKVNAMGWYRQAPGKERELVAAISTSGSRTYYADSVKGRFTISRDNAKNTVYLQMNSLKPEDTAVYYCADDSYAGIVRYGYWGKGTQVTVSS | high polyreactivity |
| QLQLVESGGGLVQAVGSLRLSCAATGSIFYPYAMGWNRQAPGKERELVASISWSGGITYYADSVKGRFTISRDNAKNTVYLQMNSLKPEDTAVYYCAADFSWYLYDYDYWGQGTQVTVSS | low polyreactivity |
| QVQLEESGAGLVQAGGSLRLSCAASGRIFTVYAMGWYRHAPGKEREFVAAIRSSGGRTYYADSVKGRFTISRDNEKNTVYLQMNSLNPEDTAVYYCAASVTGPSGADYYYWGQGTQVTVSS | high polyreactivity |
| QVQLVESGGGLVQAGGSLRLSCAASGITFPANAMGWYRQAPGKERELVADISESDGSTYYADSVKGRFTISLDNAKNTVYLQMNSLKPEDTAVYYCNAEWTSFDWGQGTQVTVSS | low polyreactivity |
| HVQLVESGGGLVQAGGSLRLSCAASGFIFWRYAMGWYRQAPGKERELVAAISVSGTRTYYADSVKGRFTISRDNAKNTVYLQMNSLKPEDTAVYYCAADRYYGEDYWGQGTQVTVSS | high polyreactivity |
| QVQLVESGGGLVQAGGSLRISCAASGYTFASYTMGWYRQAPGKERELVATISRGGGRTYYADSVKGRFTISRDNAKNTVYLQLNSLKPEDTAVYYCARPSTFFTGYRQAHFDYWGQGTQVTVSS | high polyreactivity |
| QVQLVESGGGLVQAGGSLRLSCAASGSIFVWNAMGWYIQAPRKERELVAAISYTDGSTYYADSVKGRFTISRDNAKNTVYLQMNSMNPEDTAVYYCAASTLKDIYLWFRVDYWGQCTQVTVSS | low polyreactivity |
| QVQLVESGGGLVQAGGSLRLSCAASGFTFWYYAMGWYRQAPGKERELVAAITSGGTTYYADSVKGRFTISRDNAKNTVYLQMNSLKPEDTAVYYCAALLSIYRSQYDYWGQGTQVTVSS | high polyreactivity |
| QVQLVETGGGLVQAGGSLRLSCAASGFTFAPYVMGWSRQAPGKERELVAAINWSGTRTYYADSVKGRFTFSRDNAKNTVYLQMNSLKPEDTAVYYCAARSVTVSGSLQPKRRYGYWGQGTQVTVSS | high polyreactivity |
| QVQLQESCGGLVQAGGSLRLSCAASGSIFDGFNMGWYRQAPGKEREFVAAISYGASTYYADSVKGRFTVSRDNAKNSVYLQMNSLKPEDTAVYYCAVYDELYHVLVYWGRGTQVTVSS | low polyreactivity |
| QVQLVESGGGLVQAGGSLRLSCAASGGIFNRNAMGWYRQAPGKERELVAAISSGGGSTYYADSVKGRFTISRDNAKNTVYLQMNSLKPEDTAVYYCARDSYHLYIQPFGYWGQGTQVTVSS | low polyreactivity |
| QVQLVESGGGLVQAGGSLRLSCAASGRIFAQYAMGWYRQAPVKERELVAGIDRRGGSTYYADSVKGRFTISRDNAKNTVYLQMNSLKPEDTAVYYCAAYGTTGVYRGPGYDYWGQATQVTVSS | low polyreactivity |
| QVQLVESGGGLVQAGGSLRLSCAASGSTFWYYAMGWYRQEPGKERELVASITYSGGSTYYADSVKGRFTISRDNAKNTVYLQMNSLKPEDTAVYYCAAQSPAYYTKSYWGQGTQVTVSS | low polyreactivity |
| QVQLVESGGGLDQAGGSLRLSCAASGTTFRNNAMGWYRQAPGKERELVAVITGDGGSTYYADSVKGRFTISRDNAKNTVYLEMNSLKPEDTAVYYCNARSIRYSRFRQRFGYWGQGTQVTVSS | low polyreactivity |
| QVQLVESGGGLVQAGGSLRLSCAASGRTFTPYTMGWYRQAPGKEREFVAAITVRGGSTYYADSVKGRFTISRDNAKNTVYLQMNSLKPEDTAVYYCAASYVSYRKRDDYWGQGTQVTVSS | high polyreactivity |
| PVQLVESGGGLVQAGGSLRLSCAASGSIFASYAMGWYREAPGKERELVAAISSSSGSTYYADSVKGRFTISRDNAKNTVYLQMTSLKPEDTAVYYCAAESGRRIKYWRGYYYWGQGTQVTVSS | low polyreactivity |
| QVQLVESGGGLVQAGGSLRLSCAASGSTFGSYAMGWYRQAPGGERELVAAISWNGGRTYYADSVKGRFTISRDNAKNTVYLQMNSLKPEDTAVYYCAKVVKYQSGGGLEYWGQGTQVTVSS | high polyreactivity |
| QVQLVESGGWLVQAGGSLRLSCAASGSIFTINTMGWYRQARGKERELVAAITGSGGITYYADSVKGRFTISRDNAKNTVYLQMNSLNPVDTAVYYCAAVVYGTVRRVGWYYVGEGYDYWGQGTQVTVSS | low polyreactivity |
| QVQLVESGGGVVQAGGSLRLSCAASGSTSGIYAMGWYRQAPGKERELVAAIDTYGGSTYADSVKGRFTISRDNAKNTVYLQMNSVKPEDTAVYYCAKPFSSNSWSHGYCGQGTQVTVSS | low polyreactivity |
| QVQLVESGGGLVQAGGSLRISCAASGSTFSQYTMGWYRQAPGKERELVAAITWSGGRTYYADSVKGRFTISRDNAKNTVYLQMNSLKPEDTAVYYCNRDISGSSGGELDYWGQGTQVTVSS | low polyreactivity |
| QDQLVESGGGLVQAGGSLRISCGASGRIFDIYAMGWYRQAPGKERELVADITSGGSTYYADSVQGRFTISRVNAKNTVYLQMNSLKPEDTAVYYCAARLFADYWGQGTHVTVSS | low polyreactivity |
| QVQLVDSGGGLVQAGGSLRLSCAASGFIFKYYAMGWYRQEPGKERELVAAITIGGSTNYADSVKGRFTISRDNAKNTVYLQMNSLTPEDTAVYSCAADVQERYHRAWYDYWGQGTQVTVSS | low polyreactivity |

| Sequence | polyreactivity (PSR sort gate) |
| --- | --- |
| QVQLVESGGGLVQAGGSLRLSCAASGITFYRYAMGWYRQAPGKERELVAAITRSVGRTYYADSVKGRFTISRDNAKNTVYLQMNSLKPEDTAVYYCAADSPYYRGDYYWGLGTQVTVSS | high polyreactivity |
| QVQLVESGGGLVQAGGSLRLSCAASGRTFGVNAMGGYRQAPGKERELVAAISKRGGSTYYADSVKGRFTISRDNAKNTVYLQMNSLKPEDTAVYYCAKDQPHRGPMDYWGQGTQVTVSS | high polyreactivity |
| QVQLEESGGGLVQAGGSLRLSCAASGSILVRYAMGWYRQAPGKERELVAAITYSVGSTYYADSVKGRFTISRDNAKNTVYLQMNSLKPEDTAVYYCAASGGTEVLLMDYWGQGTQVTVSS | low polyreactivity |
| QVQLVESGGGLVQAGGSLRLSCAASGFIFGLNAMGWYRQPPGKERELVAVISGRGRTYYADSVKGRFTISRDNAKNTVYLQMNSLKPEDTAVYYCNAVSSYGYDYWGQGTQVTVSS | high polyreactivity |
| QVQLVESGGGLVQAGGSLRLSCAASGRIFWINDMGWSRQAPGKERELVAAIRSIGGSTYYADSVKGRFTISRDNGKNTVYLQMNSLKPEDTAVYYCAAKSSPKVRGRYYYWGQGTQVTVSS | low polyreactivity |
| QVQLVESGGGLVQAGGSLRLSCAASGRIFSGYTMGWYRQAPGKERELVAAITRSGGSTYYADSVKGRFTISRDNAKNTVYLQMISLKPEDTAVYYCNKVSYRHMDSWGQGTQVTVSS | high polyreactivity |
| QDQHVESGGGLVQAGGSLRLICAASGNTFGWYAMGWYRQAPGKEREFVADISWSGGSTYYADSVKGRFTISRDNAKNTVYLQMNSLKQEDTAVYYCNAVWLYYWHADQYFEYDYWGQGTQVTVSS | high polyreactivity |
| QVQLVESGGGLVQAGGSLRLSCAASGSTFYGYTMGWYRQAPGKERELVAAISSSGSSTYYADSVKGRFTISRDNAKNTVYLQMNSLKPVDTAVYYCAAATRVPGHGSTSYYYWGQGTQVTVSS | high polyreactivity |
| QVQLVESGGGLVQAGGSLRLSCAASGSIFPSYAMGWYRQAPGKERELVAAISSGGTTNYADSVKGRFTISLDNAKNTVYLQMNSLKPEDTAVYYCAAVRGDSEDRYDHWGQGTQVTVSS | high polyreactivity |
| QVQLVESGGGLVQAGGSLRLSCAASGSILGDYGMGWYRQAPGKEREVVAAITWNGDSTYYADSVKGRFTISRDNAKNTVYLQMNSLKPEDTAVYYCAADLQDYKYYPWYGYWGQGTQVTVSS | low polyreactivity |
| QVQLVESGGGLVQAGGSLRLSCAASGRTFPVNGMGWYRQAPGKERELVAAITGGGSTNYADSVKGRFTISRDNAKNTVYLQMNSLKPEDTAVYYCAAGSYSRYLYSLYFDFDYWGQGTQVTVSS | low polyreactivity |
| QGQLVESGGGLVQAGGSLRLSCAASGFTFAPNAMAWYRQAPGKERELVAAISSASSTYYADSLKGRFTISRDNAKNTVYLQMNSLKPEDTAVYYCAAREGWGFYYWGQGTQVTVSS | high polyreactivity |
| QVQLVESGGGLVQAGGSLRLSCAASGRTFDSNAMGLYRQAPGKERELVAAISYGGGTTHYADSVKGRFTISRDNAKNTVYLQMNSLKPEDTAVYYCAADPEHQWESVTIGEYDYWGQGTQVTVSS | low polyreactivity |
| QVQLVESGGGLVQAGGSLRLSCAASGSTFGQYAMGWYRQAPGKERELVAAISSGGRTNYADSVKGRFTISRDNAKNTVYLQMNSLKPEDTAVYYCAARYYFPFRRFRRMDYWGQGTQVTVSS | high polyreactivity |
| QVQLVESGVCLVQAGGSLRLSCASSGLIIPPNAMGWYRQPPGKERELVASITRSGGSTYYADSVKGRFTISRDNAKNTVYVQMNSLTPEDTAVYYCAAYLDTSRYGVLYDYWGQGTQVTVSS | low polyreactivity |
| QVQLVESGGGLVQAGGSLRLSCAASGRISNFYSMGWYIQAPGKERELVAANRSGGSTNYADSVKGRFTISRDNAKYTVYLQMNSLKPEDTAVYYCAAVTGASPTRMDYWGQGTQVTVSS | high polyreactivity |
| HVQLVESGGGLVQAGGSLRLSCAASGSIFILYAMGWSRQAPGKERELLASISSSGGRTYYADSVKGRFTISRDNAKNTVYLQMNSLKPEDTAVYYCNAVGRYWSYGTIYDYWGHGTQVTVSS | high polyreactivity |
| QVQLVESGGGLVQAGGSLRLSCAASGRTFAWYTMGWYRQAPGKERELVAAISGSGGSTYYADSVKGRFTISRDNAKNTVYLQRKSLKPEDTAVYYCARRVHSYYGHTRYYYWGQGTQVTVSS | high polyreactivity |
| QVQLVESGGGLVQAGGSLRLSCAASGRIFSYYAMGWYRQAPGKERELVATINSGGSTNYADSVKGRFTISRDNAKNTVYLQMNSLKPEDTAVYYCAASPVWWYDYWGQGTQVTVSS | low polyreactivity |
| QVQLVESGGGVDQAGGSLRLSCAASGSTFHLYAMGCYRQAPGKERESVAAIRGRGGNTYADSVKGRFTISRDNAYNTVYLQMNSLKPEDTAVYYCAAPLLRDLRSPYSYNYWVQGTQVTVSS | low polyreactivity |
| QVQLVESGGGLVQAGGSLRLSCAASGRIFGVYVMGWYRQAPGKEREFVAAITWSGGRTYYADSVKGRFTISRDNAKNTVYLQMNSLKPEDTAVYYCAARRRYEYDYWGQGTQVTVSS | high polyreactivity |

Source: the nanobody polyreactivity screen of Harvey et al. (2022)
